Entries after “also recorded” stand apart in the source; their conditions may differ.
B1: 54H7: mouse hybridoma anti-O1 antigen antibody (Ms IgG3), VH SEQ ID NO:47, VL SEQ ID NO:48 (antibody, V domains shown)
VH: QVHLQQPGSELVRPGASVTLSCKASGYTFTNYWMQWVKQRPGQGLEWIGNIYPGSGNTNYDEKFRSKATLTVDTSSSTAYMHLTSLTSEDSAVYYCTRNWNFDYWGQGTTLTVSS
VL: DIQMTQSPSSLSASLGERVSLTCRASQDIGSSLNWLQQEPDGTIKRLIYATSSLDSGVPKRFSGSRSGSEYSLTISSLEAEDFVDYYCLQHTDSPYTFGGGTKLELK
modifications: 54H7 VH; 54H7 VL Amino Acid Sequence
B2: KPE33: human anti-K. pneumoniae O1 antigen antibody, VH SEQ ID NO:8, VL SEQ ID NO:9, isolated as IgG2 from donor #262 (antibody, V domains shown)
VH: EVQLVESGGALVQPGGSLRLSCAVSGFIFDDYAIHWVRRAPGKGLEWVSGIAWKSGATNYADSVKGRFAISRDNSKKSMYLQMNSLGTEDTALYYCTRRRASGDDTFYYFDYWGQGTLVTVSS
VL: EIVLTQSPATLSLSPGERATLSCRASQNVNTNLAWYQQRPGQSPRLLIYDASTRAAGLPARFSGSGSGTDFTLTISSLEPEDFAVYYCQQCTNWRYTFGQGTKLEIK
modifications: KPE33 VH Amino Acid Sequence; KPE33 VL Amino Acid Sequence

Legend:
Kp8045 Klebsiella = assay: pneumonia model, 54H7 synergy with meropenem; format: in vivo, Klebsiella pneumoniae; conditions: antibody 1 mpk at 1 hour, meropenem 1.5 mpk at 4 hour post challenge
Description: The synergy of anti-O1 antigen antibodies and antibiotic was also assessed in the pneumonia mouse models. C57BL/6 mice were inoculated intranasally with 1e4 to 1e8 CFU of Kp8045 Klebsiella. Both sub-therapeutic dosage of antibodies (1 mpk) and meropenem antibiotic (1.5 mpk) were administered at 1 hour or 4 hour post bacterial challenge, respectively. Mouse survival was monitored daily until up to day 8.

LPS = assay: endotoxemia LPS-induced sepsis model, survival; format: in vivo, Balb/c mice; conditions: 1 mg/kg or 5 mg/kg, 24 hours prior to LPS, vs control IgG (R347)
Description: In order to determine the protective effect of anti-O1 antigen antibodies, female mice (Balb/c), aged 6-8 weeks, were sensitized with D-galactose (D-Gal, 12 mg/kg), and subsequently challenged intraperitoneally (ip) with 10-50 ng of LPS 24 hours after anti-O1 antigen antibody administration. Antibody was administered at doses of 0.2 mg/kg, 1 mg/kg, or 5 mg/kg. Mouse survival was monitored up to 6 days post LPS challenge.

[1] = test system: highly virulent strain Kp43816 (O1); assay: acute pneumonia model with Kp43816, prophylactic dosing, survival; format: in vivo, Klebsiella pneumoniae; conditions: 15 mpk, 24 hour prior to challenge
Description: In order to determine the efficacy of anti-O1 antigen antibodies in combination with antibiotics, 54H7 was tested in an acute pneumonia models. C57BL/6 mice were inoculated intranasally with 1e4 CFU of highly virulent strain Kp43816 (O1). Anti-K. pneumoniae monoclonal antibody 54H7 at 15 mg/kg and human IgG1 control antibody at 15 mg/kg were given 24 hour prior bacterial challenge (prophylatic dosing). Mouse survival was monitored daily until up to day 14.

[2] = test system: K. pneumoniae carbapenem-resistant (CRE) strain Kp1131115 (O1); assay: acute lethal pneumonia model, survival; format: in vivo, Klebsiella pneumoniae; conditions: C57BL/6 mice, antibody one hour post bacterial challenge, vs human IgG1 control (R347)
Description: (§1) In an acute pneumonia model, C57BL/6 mice were inoculated intranasally with 1e4 to 1e8 CFU of the multi-drug resistant Klebsiella pneumoniae carbapenam resistant (CRE) clinical isolate strain KP1131115 (O1). Anti-K. pneumoniae monoclonal antibody KPE33 at 0.2, 1, and 5 mg/kg and human IgG1 control antibody at 5 mg/kg were given one hour post bacterial challenge (therapeutic dosing). Mouse survival was monitored daily until up to day 8.
as §1, with “Additionally, in an” for “In an”, “monoclonal antibodies […] and […]” for “monoclonal antibody KPE33”, “at 0.2” for “at 0.2, 1,”, “and 1” for “and 5”
KPE33 or KPE33-V-2016 were administered at a dose of 6 mg/kg 1 hour post bacterial infection with a Klebsiella pneumoniae carbapenam resistant strain.

[3] = test system: K. pneumoniae and S. aureus SF8300 (USA300); assay: K. pneumoniae and S. aureus co-infection pneumonia model; format: in vivo, Klebsiella pneumoniae and Staphylococcus aureus; conditions: C57BL/6 mice, 0.5 mL ip, 24 hours prior to co-infection
Description: In order to evaluate the efficacy of anti-O1 antigen antibodies in co-infection, female 7-8 week old C57BL/6 mice were briefly anesthetized in 3% Isoflurane and 50 μl of bacterial suspension was placed on the nares. Animals were inoculated with 5e7 CFU S. aureus SF8300 (USA300) alone or in combination with 1.5e2 CFU of K. pneumoniae and monitored up to 7 days for survival studies. For organ burden studies, lungs and spleens were harvested at 24 or 48 hours post challenge as described in Example 5 above. For protection studies, mice were passively immunized (0.5 mL, ip) with KPE33 or control mAb before lethal bacterial challenge. All data were plotted in Prism.

O1 LPS = assay: Octet binding affinity to O1 LPS; parameters: species or system Klebsiella pneumoniae; conditions: average, from on-rate and off-rate, read-out: affinity constant (KD) to O1 LPS
Excerpt: In order to reduce potential sequence liabilities for antibody development including potential immunogenicity due to anti-drug antibodies, an unpaired Cysteine in the light chain CDR3 of KPE33 was exchanged with Threonine (T), and somatic mutations in the frameworks 1, 2, and 4 of KPE33 were replaced with germ line residues (as summarized in FIG. 5). CDRs were maintained as wildtype, except for the C107T substitution described above. The optimized KPE33 was named KPE33v2016. […] This platform provides a powerful tool to measure the rate of biomolecular complex formation and complex stability in a more biologically meaningful setting. Briefly, Protein A coated sensors were coated with 2 μg/mL O1 LPS for 10 minutes before being dipped into solution containing 0.2 μg/mL anti-O1 LPS mAbs in Kinetics buffer (ForteBio, dilute 10× to 1× with PBS). Changes in the number of molecules bound to the biosensor caused a shift in the interference pattern that was recorded in real time. […] The affinity constant (KD) of KPE33 and KPE33v2016 to O1 LPS was calculated based on the on-rate and off-rate from Octet sensorgram.
KPE33v2016 was further optimized, thereby creating two new variants—KPE33 H32+L2016(1EQ) and KPE33 H33+L2016(1EQ). Both of these variants contain a Methionine to Isoleucine mutation adjacent to CDRH1, a Tryptophan to Tyrosine mutation in CDRH2, an Aspartate to Glutamate mutation adjacent to CDRH2, Asparagine to Glutamine and Methionine to Leucine mutations in FRH3 and an Aspartate to Asparagine mutation in CDRH3. In addition, KPE33 H32+L2016(1EQ) had four FRH3 residues changed to the germ-line residues, whereas KPE33 H33+L2016(1EQ) only has three of the same FRH3 residues changed to the germ-line. Both of these variants contain the same light chain as KPE33v2016, but with a single Glutamate to Glutamine mutation in residue 1.

[4] = test system: Klebsiella pneumoniae of the LPS-O1 serotype; assay: primary screening, binding to whole bacteria
Excerpt: KPA27 and KPE33 were isolated from the peripheral blood of two different immune donors: #487 and #262, respectively. […] KPA27 and KPE33 were isolated from immune donors as IgG2 antibodies.
KPB202 and KPJ4 were isolated from tonsillar B cells of two different donors: T6 (KPB202) and T8 (KPJ4). […] KPB202 and KPJ4 were isolated from donors as IgG1 and IgG2 antibodies, respectively.

Molecule	survival, combination with meropenem, pneumonia Kp8045 (Kp8045 Klebsiella)	survival, endotoxemia model (LPS)	survival, Kp43816 pneumonia, monotherapy [1]	survival, lethal pneumonia Kp1131115 [2]	survival in lethal co-infection [3]	Kd (O1 LPS) [nM]	binding to bacteria in primary screening [4]
B1	significant synergy and better protection than monotherapy	protects mice	significant protection				
B2				protect mice from lethal bacterial challenge; also recorded: dose dependently enhanced survival	rescued the mice	5.83	bind to Klebsiella pneumoniae of the LPS-O1 serotype
